Columns and labels:
[1] = biological target: ClfB (clumping factor B of S. aureus, NCBI Protein GI 15925620) (Staphylococcus aureus), Q99R07; assay: cell-based or functional assay
[2] = biological target: His-tagged recombinant ClfB protein (Staphylococcus aureus); assay: pull-down competition on His-tagged ClfB beads, anti-GST Western blot, densitometry; competes with GST-tagged Frag2-CDS

ClfB (clumping factor B of S. aureus, NCBI Protein GI 15925620) (Staphylococcus aureus), Q99R07, sequence (Q99R07 45-841 limits assumed): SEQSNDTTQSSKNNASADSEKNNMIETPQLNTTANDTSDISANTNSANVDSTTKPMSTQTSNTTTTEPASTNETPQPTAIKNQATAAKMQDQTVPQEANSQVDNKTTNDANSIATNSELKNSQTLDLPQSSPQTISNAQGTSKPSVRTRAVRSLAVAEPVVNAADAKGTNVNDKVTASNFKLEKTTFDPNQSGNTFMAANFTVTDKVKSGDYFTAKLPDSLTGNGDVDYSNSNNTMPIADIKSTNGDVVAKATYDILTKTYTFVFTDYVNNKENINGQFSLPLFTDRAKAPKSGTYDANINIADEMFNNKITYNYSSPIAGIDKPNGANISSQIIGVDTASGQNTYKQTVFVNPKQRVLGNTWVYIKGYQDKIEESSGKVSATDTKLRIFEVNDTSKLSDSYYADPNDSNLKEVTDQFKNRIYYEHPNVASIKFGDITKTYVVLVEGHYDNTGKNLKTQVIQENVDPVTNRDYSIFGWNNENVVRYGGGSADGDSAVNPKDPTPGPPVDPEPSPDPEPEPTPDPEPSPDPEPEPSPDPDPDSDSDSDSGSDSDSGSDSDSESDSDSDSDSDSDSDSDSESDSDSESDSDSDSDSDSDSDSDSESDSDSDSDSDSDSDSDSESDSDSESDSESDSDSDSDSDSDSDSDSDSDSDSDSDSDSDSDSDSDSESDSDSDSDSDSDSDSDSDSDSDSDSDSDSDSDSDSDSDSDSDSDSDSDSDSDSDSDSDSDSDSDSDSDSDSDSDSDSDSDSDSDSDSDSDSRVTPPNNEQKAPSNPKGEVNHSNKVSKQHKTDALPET

Row | Binder | beta-galactosidase expression (X-Gal beta galactosidase overlay assay, Y2H) (% more than the original binder) [1] | percent inhibition of the binding of GST-tagged keratin fragment to ClfB-protein at 1 µM peptide [2]
1 | YSLGSSFGSGAGSSSSSRTSPSRAVVVK (modifications not checked) [more stronger binder (peptide SEQ ID NO 73)] | > 100 | 
2 | SYSLGSSFGSGAGSSSFSRTS (modifications not checked) [IPEP-21SA (synthetic peptide of 21 amino acids)] |  | 40%
3 | YSLGSSFGSGAGSSSLGRTSSSRAVVVK (modifications not checked) [stronger binder (peptide SEQ ID NO 97)] | > 50 | 

From US20100216191A1, “Method for Manufacturing a Modified Peptide” (PROCOMCURE BIOTECH GMBH, priority 2007, published 2010)
